The values that follow come from patent publication US20250361544A1, “TYPE III-D CRISPR-CAS SYSTEM AND USES THEREOF” (BOARD OF REGENTS, THE UNIVERSITY OF TEXAS SYSTEM, published 2025).

Test [1] has as its target T1, Csx19 subunit of the Synechocystis sp. PCC 6803 Type III-Dv complex (Synechocystis sp. PCC 6803).
T1 construct: Untagged, co-expressed from pPF2434 in E. coli; one copy in the complex
T1 chain: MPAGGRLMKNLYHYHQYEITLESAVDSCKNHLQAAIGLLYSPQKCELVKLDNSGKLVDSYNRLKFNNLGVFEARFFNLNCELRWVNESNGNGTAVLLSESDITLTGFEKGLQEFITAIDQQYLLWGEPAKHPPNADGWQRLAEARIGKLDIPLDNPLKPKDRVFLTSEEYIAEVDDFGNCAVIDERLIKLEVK
Kind of test: cryo-EM structure of the binary complex, 2.5 Å. As for the experimental part:
Fully assembled Type III-D binary complex was diluted to a concentration of 0.3 mg/ml in SEC buffer before 2.5 μl of sample was added to a quantifoil 1.2/1.3 grid that was glow discharged for 1 minute. Sample was applied to the grid in an FEI Vitrobot MarkIV kept at 100% humidity and 4° C. before blotting for 5.5 seconds with a force of 0. For the ssRNA target-bound complex, non-self ssRNA was mixed with the binary complex with a 2:1 molar ratio of RNA:Binary complex in SEC buffer to a final protein concentration of 0.3 mg/mL. Grids of the target-bound complex were frozen identical to that of the binary complex. Both grids were loaded to an FEI Titan Krios (Sauer Structural Biology Lab, University of Texas at Austin) operating at 300 kV. Images were taken at a pixel size of 0.81 Å/pixel with a dose rate of 10.6 e⁻/pixel/s for 5 seconds using a Gatan K3 direct electron detector, giving a final dosage of 80.5 e⁻/Å². Data collection was automated using SerialEM using a defocus range of −1.2 to −2.2 μm.
To delineate the architecture of this Type III-Dv effector, we used cryo-EM to determine a 2.5-Å resolution structure of the complex containing the nt crRNA (FIG. 1e,f, FIG. 8). To gain preliminary insights, we generated initial models of each subunit using Alphafold 2. […]

For test [2], the target named is T2, Cas6-2a of Synechocystis sp. PCC 6803 (Synechocystis sp. PCC 6803).
T2 construct: The Results say cas6-2a was cloned and expressed with the operon
T2 chain: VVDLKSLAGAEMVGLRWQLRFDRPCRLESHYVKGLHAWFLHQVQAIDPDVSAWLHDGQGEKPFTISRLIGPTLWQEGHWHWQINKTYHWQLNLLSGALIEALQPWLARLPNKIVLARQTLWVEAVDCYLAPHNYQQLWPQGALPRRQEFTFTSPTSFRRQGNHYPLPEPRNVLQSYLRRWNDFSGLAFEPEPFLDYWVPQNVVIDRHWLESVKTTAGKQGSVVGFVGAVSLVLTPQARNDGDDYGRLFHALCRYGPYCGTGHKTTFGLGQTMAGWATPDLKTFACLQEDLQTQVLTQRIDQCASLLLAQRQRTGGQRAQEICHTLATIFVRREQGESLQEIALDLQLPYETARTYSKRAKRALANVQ
Kind of test: metal affinity (His6-Cas10) and size-exclusion co-purification from E. coli; SDS-PAGE and mass spectrometry. The protocol: The sample was applied to a second HisTrap column; however, due to inefficient TEV cleavage, the complex unexpectedly bound the column and eluted with high imidazole. The complex was further purified by size exclusion chromatography (SEC) on a HiLoad 16/600 Superdex 200 column (GE Healthcare) equilibrated in SEC Buffer). Mutant Type III-Dv complexes were similarly expressed and purified, except TEV protease was omitted. Purified complexes were typically concentrated to 1.5 mg/ml using a centrifugal concentrator (Amicon; 100 kDa MWCO), aliquoted, and stored at −80° C.
Denaturing liquid chromatography mass spectrometry (LC-MS) was performed on a Dionex UltiMate 3000 nanoLC system coupled to a Thermo Orbitrap Fusion Lumos Tribrid mass spectrometer (San Jose, Ca). The trap column (3 cm) and analytical column (30 cm) were packed in-house with polymer reverse-phase (PLRP) packing material. Approximately 80 ng of the CRISPR complex were injected and subjected to reverse-phase chromatography, utilizing water with 0.1% formic acid as mobile phase A (MPA), and acetonitrile with 0.1% formic acid as mobile phase B (MPB). Forward trapping occurred for 5 minutes at 2% MPB at a flow rate of 5 μL/min at the trap column. Elution onto the analytical column (at 0.3 μL/min) occurred by increasing MPB to 10% over a 3-minute gradient followed by an increase to 35% MPB over 32 minutes. […]
Background: In gel filtration, larger molecules generally elute earlier.

For test [3], the target named is T3, Type III-Dv subunits co-expressed without Csx19 (Cas7-Cas5-Cas11, Cas7-2x and Cas7-insertion, with crRNA) (Synechocystis sp. PCC 6803).
T3 construct: These are the subunits left beside His-tagged Cas10 when csx19 carries a nonsense mutation (pPF3089); they are grouped here only as the prey set of the ΔCsx19 pulldown; also called ΔCsx19 complex; ΔCsx19 type Type III-Dv complex
T3 sequence (chain, as listed by the source limits assumed, chain 1 of 3): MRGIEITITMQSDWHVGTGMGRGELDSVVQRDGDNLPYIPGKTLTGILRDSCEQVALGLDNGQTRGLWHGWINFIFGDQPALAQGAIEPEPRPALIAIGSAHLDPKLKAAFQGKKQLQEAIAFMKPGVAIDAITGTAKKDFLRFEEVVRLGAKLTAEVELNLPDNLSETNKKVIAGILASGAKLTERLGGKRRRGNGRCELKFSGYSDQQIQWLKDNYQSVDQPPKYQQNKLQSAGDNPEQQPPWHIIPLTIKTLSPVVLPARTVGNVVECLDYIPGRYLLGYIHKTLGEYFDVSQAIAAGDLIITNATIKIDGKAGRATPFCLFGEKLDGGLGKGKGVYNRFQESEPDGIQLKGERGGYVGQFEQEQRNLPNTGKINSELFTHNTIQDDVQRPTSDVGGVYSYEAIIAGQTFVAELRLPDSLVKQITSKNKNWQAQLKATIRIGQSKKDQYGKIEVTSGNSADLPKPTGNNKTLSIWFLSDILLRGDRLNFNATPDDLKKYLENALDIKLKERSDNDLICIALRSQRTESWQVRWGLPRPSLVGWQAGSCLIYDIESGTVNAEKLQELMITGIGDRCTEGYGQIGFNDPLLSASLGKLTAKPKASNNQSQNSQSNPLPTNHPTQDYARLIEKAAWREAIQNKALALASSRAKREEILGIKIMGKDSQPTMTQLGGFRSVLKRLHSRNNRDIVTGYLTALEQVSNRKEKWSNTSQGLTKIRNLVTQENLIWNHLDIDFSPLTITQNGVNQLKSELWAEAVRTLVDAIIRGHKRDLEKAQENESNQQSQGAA
T3 sequence (chain, as listed by the source limits assumed, chain 2 of 3): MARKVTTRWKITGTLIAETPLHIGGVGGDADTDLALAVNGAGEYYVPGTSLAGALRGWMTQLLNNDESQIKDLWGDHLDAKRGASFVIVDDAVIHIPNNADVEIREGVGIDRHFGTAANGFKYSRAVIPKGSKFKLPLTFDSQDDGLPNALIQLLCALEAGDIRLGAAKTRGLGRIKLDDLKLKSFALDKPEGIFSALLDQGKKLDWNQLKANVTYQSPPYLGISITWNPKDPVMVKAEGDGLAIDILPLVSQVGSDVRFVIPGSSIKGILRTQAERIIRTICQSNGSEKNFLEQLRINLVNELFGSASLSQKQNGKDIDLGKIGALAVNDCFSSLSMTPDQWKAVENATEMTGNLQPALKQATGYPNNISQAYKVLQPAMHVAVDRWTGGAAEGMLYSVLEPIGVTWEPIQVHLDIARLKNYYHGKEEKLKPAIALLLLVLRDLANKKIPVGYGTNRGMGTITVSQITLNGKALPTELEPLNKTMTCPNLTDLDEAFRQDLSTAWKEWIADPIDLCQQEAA
T3 sequence (chain, as listed by the source limits assumed, chain 3 of 3): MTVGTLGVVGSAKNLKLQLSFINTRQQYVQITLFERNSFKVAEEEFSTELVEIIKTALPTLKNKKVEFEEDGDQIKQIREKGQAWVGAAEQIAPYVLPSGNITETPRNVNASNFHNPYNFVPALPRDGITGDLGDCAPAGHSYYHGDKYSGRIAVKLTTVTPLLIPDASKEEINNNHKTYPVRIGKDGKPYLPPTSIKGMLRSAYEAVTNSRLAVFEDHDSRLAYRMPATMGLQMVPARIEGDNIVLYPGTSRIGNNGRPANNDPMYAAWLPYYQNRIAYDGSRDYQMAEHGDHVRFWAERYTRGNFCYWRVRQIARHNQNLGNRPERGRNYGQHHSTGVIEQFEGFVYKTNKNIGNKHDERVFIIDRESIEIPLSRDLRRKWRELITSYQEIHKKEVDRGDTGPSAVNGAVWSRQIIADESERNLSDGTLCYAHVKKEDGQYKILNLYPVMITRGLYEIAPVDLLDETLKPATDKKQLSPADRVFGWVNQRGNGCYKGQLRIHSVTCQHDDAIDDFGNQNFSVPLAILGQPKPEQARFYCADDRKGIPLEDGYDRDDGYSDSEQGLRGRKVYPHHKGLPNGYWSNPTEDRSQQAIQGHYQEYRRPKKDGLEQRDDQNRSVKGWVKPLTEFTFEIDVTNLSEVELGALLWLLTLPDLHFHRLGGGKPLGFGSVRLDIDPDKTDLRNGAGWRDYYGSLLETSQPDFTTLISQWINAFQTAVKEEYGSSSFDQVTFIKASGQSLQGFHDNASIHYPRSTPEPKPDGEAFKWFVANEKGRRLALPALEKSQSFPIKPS
Put plainly: His-tag affinity purification and SEC of the ΔCsx19 co-expression; SDS-PAGE.

B1: Cas10 subunit of the Synechocystis sp. PCC 6803 Type III-Dv CRISPR-Cas complex, with N-terminal His6 tag and TEV site (other)
chain: MFLVLIETSGNQHFIFSTNKLRENIGASELTYLATTEILFQGVDRVFQTNYYDQWSDTNSLNFLADSKLNPAIDDPKNNADIEILLATSGKAIALVKEEGKAKQLIKEVTKQALINAPGLEIGGIYVNCNWQDKLGVAKAVKEAHKQFEVNRAKRAGANGRFLRLPIAAGCSVSELPASDFDYNADGDKIPVSTVSKVKRETAKSAKKRLRSVDGRLVNDLAQLEKSFDELDWLAVVHADGNGLGQILLSLEKYIGEQTNRNYIDKYRRLSLALDNCTINAFKMAIAVFKEDSKKIDLPIVPLILGGDDLTVICRGDYALEFTREFLEAFEGQTETHDDIKVIAQKAFGVDRLSACAGISIIKPHFPFSVAYTLAERLIKSAKEVKQKVTVTNSSPITPFPCSAIDFHILYDSSGIDFDRIREKLRPEDNTELYNRPYVVTAAENLSQAQGYEWSQAHSLQTLADRVSYLRSEDGEGKSALPSSQSHALRTALYLEKNEADAQYSLISQRYKILKNFAEDGENKSLFHLENGKYVTRFLDALDAKDFFANANHKNQGE
notes: Whole gene amplified from Synechocystis genomic DNA and co-expressed in E. coli from pPF2434; The complex also holds a 37-nt crRNA; also called His6-TEV-Cas10; N-His6-tagged Cas10; not shown: TEV cleavage was inefficient, so
Regarding B1, the binding result in test [1] is “binds”; in test [2], “no binding”; in test [3], “no binding”.
